Source: article PMC8149476 (Cell Reports Medicine, 2021)

B1: anti-NOTCH3 inhibitory (anti-N3(i)) mAb clone 75 (antibody, V domains shown)
VH: EVQLVESGGGLVQPGGSLRLSCAASGYAFTDYWMTWVRQAPGKGLEWVAEISPNSGGTNFNEKFKGRFTISVDNAKNSLYLQMNSLRAEDTAVYYCARGEIRYNWFAYWGQGTLVTVSS
VL: DIQMTQSPSSLSASVGDRVTITCKASQNVGNNIAWYQQKPGKAPKLLIYYASNRYTGVPSRFSGSGYGTDFTLTISSLQPEDFATYYCQRLYNSPFTFGGGTKVEIK
B2: Anti-N3(i)-vc0101 ADC (antibody, V domains shown)
VH: B1 VH
VL: B1 VL

Columns and labels:
[1] = target: human NOTCH3 NRR_AviHis recombinant protein (Homo sapiens, UniProt Q9UM47); assay: SPR
[2] = target: human NOTCH3 receptor expressed on U2OS cells (U2OS-hN3) (human, UniProt Q9UM47); assay: ELISA
Sequence of human NOTCH3 receptor expressed on U2OS cells (U2OS-hN3) (Q9UM47 40-2321): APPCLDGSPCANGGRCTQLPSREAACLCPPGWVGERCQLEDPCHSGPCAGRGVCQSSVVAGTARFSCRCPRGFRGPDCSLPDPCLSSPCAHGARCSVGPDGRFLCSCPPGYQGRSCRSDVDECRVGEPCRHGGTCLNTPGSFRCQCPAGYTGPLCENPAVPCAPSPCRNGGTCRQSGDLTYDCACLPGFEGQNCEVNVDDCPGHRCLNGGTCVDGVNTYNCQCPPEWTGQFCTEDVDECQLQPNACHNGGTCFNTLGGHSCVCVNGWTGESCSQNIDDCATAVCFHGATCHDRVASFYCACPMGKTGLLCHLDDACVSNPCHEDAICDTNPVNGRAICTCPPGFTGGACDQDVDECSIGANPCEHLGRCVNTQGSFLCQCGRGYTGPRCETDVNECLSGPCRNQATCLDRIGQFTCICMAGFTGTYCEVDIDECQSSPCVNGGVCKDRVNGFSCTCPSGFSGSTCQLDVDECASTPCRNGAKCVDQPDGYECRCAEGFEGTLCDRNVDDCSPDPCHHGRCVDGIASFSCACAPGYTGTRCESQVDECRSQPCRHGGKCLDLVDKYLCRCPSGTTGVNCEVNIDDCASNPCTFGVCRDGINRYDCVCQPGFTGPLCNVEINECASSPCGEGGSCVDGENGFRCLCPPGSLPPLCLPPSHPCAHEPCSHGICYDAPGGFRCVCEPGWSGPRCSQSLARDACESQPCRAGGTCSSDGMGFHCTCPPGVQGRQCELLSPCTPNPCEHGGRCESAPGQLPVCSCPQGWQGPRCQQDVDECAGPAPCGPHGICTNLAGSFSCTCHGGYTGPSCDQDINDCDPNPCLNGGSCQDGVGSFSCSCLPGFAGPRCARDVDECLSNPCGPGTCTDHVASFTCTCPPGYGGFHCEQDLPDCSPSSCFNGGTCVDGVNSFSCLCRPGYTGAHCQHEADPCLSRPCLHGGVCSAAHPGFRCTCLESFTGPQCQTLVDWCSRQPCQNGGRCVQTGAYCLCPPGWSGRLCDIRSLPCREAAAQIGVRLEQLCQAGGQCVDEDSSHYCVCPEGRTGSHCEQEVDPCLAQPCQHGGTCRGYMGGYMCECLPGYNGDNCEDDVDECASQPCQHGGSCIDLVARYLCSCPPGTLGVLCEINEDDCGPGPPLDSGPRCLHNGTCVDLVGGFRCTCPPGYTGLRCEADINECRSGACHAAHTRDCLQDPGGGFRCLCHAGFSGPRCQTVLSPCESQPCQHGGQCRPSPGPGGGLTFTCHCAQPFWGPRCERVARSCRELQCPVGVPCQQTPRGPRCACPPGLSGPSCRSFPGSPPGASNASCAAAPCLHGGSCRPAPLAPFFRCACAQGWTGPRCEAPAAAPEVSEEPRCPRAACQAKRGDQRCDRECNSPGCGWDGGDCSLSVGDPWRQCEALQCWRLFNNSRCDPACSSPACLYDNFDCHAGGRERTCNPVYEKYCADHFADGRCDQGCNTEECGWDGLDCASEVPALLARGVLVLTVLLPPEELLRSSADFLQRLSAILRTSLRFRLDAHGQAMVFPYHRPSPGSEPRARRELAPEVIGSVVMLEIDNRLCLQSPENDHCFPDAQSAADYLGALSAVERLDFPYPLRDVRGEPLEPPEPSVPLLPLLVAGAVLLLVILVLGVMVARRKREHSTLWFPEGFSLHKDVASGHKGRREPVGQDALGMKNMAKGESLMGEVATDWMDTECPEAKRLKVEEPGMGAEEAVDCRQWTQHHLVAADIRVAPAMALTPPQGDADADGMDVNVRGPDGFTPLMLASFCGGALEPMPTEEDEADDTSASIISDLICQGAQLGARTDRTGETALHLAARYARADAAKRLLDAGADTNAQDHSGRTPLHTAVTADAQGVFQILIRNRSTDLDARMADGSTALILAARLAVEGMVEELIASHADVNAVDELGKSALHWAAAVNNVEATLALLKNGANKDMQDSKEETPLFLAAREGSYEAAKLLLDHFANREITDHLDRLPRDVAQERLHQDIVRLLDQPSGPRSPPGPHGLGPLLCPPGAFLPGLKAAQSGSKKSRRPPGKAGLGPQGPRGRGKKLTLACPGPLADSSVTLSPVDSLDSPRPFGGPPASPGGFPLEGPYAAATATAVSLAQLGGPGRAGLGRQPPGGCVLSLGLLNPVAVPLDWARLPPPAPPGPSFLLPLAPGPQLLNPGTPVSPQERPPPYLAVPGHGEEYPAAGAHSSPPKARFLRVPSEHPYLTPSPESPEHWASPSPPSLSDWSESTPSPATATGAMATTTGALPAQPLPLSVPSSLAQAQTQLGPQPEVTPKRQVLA

[3] = target: mouse NOTCH3 (mN3) expressed on U2OS cells (U2OS-mN3) (mouse, UniProt Q61982); assay: ELISA
Sequence of mouse NOTCH3 (mN3) expressed on U2OS cells (U2OS-mN3) (Q61982 40-2318): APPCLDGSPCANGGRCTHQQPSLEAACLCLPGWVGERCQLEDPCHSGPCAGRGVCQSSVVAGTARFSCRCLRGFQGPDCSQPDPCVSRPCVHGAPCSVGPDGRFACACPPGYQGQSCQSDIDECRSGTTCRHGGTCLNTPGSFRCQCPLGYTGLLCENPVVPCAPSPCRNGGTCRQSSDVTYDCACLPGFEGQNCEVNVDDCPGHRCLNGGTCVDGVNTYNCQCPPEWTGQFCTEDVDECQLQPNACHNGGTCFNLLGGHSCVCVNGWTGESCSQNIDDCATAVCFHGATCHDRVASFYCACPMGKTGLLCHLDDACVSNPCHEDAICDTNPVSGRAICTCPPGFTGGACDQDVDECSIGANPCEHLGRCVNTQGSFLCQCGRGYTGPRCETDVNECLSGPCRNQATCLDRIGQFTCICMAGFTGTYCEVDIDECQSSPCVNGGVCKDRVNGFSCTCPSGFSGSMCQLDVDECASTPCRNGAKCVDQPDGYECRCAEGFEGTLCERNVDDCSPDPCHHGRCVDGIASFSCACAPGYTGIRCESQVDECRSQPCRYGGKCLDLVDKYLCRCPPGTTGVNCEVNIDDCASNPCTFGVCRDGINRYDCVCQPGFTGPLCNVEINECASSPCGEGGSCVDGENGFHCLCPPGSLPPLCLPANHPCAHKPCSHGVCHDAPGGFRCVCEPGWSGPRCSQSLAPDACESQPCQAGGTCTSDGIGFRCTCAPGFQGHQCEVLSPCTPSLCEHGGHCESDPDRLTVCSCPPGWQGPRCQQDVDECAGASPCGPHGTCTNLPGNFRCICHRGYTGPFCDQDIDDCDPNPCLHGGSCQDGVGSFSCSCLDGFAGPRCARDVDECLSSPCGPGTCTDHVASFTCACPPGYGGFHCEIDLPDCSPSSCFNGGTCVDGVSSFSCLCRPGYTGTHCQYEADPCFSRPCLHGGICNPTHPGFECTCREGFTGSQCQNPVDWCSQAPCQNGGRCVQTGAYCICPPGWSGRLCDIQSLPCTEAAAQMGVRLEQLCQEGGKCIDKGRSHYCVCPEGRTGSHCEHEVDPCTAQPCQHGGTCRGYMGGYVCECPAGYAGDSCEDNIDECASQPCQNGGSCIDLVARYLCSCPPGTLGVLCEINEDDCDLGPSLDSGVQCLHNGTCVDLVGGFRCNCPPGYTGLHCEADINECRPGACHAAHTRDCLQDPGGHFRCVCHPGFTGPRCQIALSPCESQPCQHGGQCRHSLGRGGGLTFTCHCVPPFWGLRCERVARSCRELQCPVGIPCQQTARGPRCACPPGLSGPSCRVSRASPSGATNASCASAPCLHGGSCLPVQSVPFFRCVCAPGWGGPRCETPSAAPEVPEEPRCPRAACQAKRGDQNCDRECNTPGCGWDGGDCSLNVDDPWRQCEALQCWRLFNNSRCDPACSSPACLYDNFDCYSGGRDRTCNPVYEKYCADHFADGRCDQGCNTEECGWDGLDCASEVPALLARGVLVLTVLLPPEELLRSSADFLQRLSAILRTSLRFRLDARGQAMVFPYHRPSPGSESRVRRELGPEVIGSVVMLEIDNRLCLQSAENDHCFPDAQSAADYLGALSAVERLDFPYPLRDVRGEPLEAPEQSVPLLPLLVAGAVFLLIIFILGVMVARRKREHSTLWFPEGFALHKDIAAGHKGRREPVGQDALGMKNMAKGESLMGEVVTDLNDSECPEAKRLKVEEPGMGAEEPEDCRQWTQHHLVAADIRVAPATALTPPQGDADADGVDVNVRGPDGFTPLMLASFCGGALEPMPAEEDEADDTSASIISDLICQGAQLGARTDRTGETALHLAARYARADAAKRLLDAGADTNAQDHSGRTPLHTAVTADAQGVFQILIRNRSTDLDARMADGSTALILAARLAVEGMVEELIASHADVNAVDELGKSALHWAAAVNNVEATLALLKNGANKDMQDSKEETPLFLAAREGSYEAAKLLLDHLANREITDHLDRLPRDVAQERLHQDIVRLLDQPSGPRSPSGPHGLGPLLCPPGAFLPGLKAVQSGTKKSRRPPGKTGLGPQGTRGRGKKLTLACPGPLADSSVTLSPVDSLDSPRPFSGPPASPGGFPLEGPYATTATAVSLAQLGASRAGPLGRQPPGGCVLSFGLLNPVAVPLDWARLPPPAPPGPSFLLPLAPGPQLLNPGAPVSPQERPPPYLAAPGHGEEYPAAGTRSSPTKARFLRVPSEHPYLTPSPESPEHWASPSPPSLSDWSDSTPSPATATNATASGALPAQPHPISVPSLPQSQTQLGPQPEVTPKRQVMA

[4] = target: human NOTCH1 receptor expressed on U2OS cells (U2OS-hN1) (Homo sapiens, UniProt P46531); assay: ELISA
[5] = target: mouse NOTCH1 receptor expressed on U2OS cells (U2OS-mN1) (Mus musculus, UniProt Q01705); assay: ELISA
[6] = target: NOTCH3 endogenous on MDA-MB-468 cells (human (endogenous in MDA-MB-468), UniProt Q9UM47); assay: immunostaining of cells or tissue
Sequence of NOTCH3 endogenous on MDA-MB-468 cells (Q9UM47 40-2321): as the sequence (Q9UM47 40-2321) above

| Binder | binding result [1] | binding result [2] | binding result [3] | binding result [4] | binding result [5] | binding result [6] |
| --- | --- | --- | --- | --- | --- | --- |
| B1 | binds | binds | no binding | no binding | no binding | binds |
| B2 | – | binds | – | – | – | – |
